Measured values published in patent US20140056882A1.

Molecular target: mouse G-CSF (mGCSF, R&D Systems Cat#414-CS) (mouse) (UniProt P09920)
Assay: cell-based or functional assay

Sequence of UniProt P09920 (P09920 31-208 limits assumed): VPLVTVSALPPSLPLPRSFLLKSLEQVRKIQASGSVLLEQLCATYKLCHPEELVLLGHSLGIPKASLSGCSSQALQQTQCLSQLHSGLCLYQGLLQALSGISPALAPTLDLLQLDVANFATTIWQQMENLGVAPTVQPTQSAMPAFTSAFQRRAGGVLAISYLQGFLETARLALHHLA

IC50, inhibition of mG-CSF proliferation of hG-CSFR BaF3 cells (MTS reduction) [nM] | Substance
0.01 | R&D Systems antibody MAB414 (rat anti-mouse G-CSF monoclonal antibody, clone 67604)
0.022 | soluble hG-CSFR-Fc protein (from UniProt Q99062 25-332) (Fc fusion)
